Legend:
[1] = molecular target: T1, recombinant mouse WISP1/His (mouse, UniProt O54775 23-367); assay: ELISA screening
T1 construct: also called murine WISP1; mWISP1; not shown: His tag
T1 sequence (looked up): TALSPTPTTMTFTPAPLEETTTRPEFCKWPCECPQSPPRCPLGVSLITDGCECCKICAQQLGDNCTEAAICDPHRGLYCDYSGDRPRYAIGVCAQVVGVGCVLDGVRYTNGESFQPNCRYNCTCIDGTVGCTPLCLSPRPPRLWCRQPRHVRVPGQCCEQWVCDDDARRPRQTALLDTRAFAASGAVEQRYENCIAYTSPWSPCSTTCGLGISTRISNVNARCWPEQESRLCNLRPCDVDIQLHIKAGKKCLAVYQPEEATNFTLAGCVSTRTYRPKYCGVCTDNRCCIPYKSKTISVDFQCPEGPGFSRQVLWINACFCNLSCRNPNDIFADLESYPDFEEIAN

[2] = molecular target: T2, recombinant human WISP1/His (human, UniProt O95388 23-367); assay: ELISA screening
T2 construct: also called hWISP1; recombinant human WISP1 protein; not shown: His tag
T2 sequence (looked up): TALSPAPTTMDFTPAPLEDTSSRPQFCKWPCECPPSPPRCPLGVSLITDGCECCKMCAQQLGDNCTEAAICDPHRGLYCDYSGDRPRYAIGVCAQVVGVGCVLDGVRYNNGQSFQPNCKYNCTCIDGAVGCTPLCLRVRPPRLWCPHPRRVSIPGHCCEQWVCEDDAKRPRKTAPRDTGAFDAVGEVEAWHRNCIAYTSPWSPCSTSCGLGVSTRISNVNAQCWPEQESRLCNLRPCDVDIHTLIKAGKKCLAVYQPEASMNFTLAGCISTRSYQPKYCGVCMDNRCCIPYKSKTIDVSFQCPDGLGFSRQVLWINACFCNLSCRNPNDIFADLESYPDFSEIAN

[3] = molecular target: T2, recombinant human WISP1/His; assay: SPR, IgG captured on anti-human Fc CM5 chip, human WISP1/His as analyte, 1:1 Langmuir fit
Protocol: This example illustrates binding affinities of various anti-WISP-1 antibodies disclosed herein. Briefly, Anti-human Fc antibody (GE, BR-1008-39) was immobilized on CM5 sensor chip to approximately 1000 RU using standard NHS/EDC coupling methodology. Antibodies (about 10 μg/ml) were captured for 60 s at a flow rate 10 μl/min. Recombinant human WISP1/His was serially diluted in running buffer (HBS-EP). All measurements were conducted with a flow rate of 30 μL/min. Surfaces were regenerated with 3M MgCl2 for 60 s. A 1:1 (Langmuir) binding model was used to fit the data.

Binder	binding result [1]	binding result [2]	Kd [3] [nM]	koff [3] [s⁻¹]	kon [3] [M⁻¹ s⁻¹]
WIr2D5 (antibody, V domains shown, Fully human IgG; also called Wlr2D5) VH: EVQLVESGAEVKKPGASVKVSCKASGYTFTSYGISWVRQAPGQGLEWMGWISAYNGNTNYAQKLQGRVTMTTDTSTSTAYMELRSLRSDDTAVYYCARVRVFEYSSLMDVWGQGTTVTVSS VL: AIQMTQSPSSLSASVGDRVTITCQASQDISNYLNWYQQKPGKAPKLLIYDASNLETGVPSRFSGSGSGTDFTFTISSLQPEDIATYYCQQHDNLPITFGQGTRLEIK	binds	binds	–	–	–
WIr2H4 (antibody, V domains shown, Tested as IgG (captured by anti-human Fc); also called Wlr2H4) VH: EVQLVESGGDLVQPGGSLRLSCAASGFTLNSRDMHWVRQSTRTGLEWVAAISIAGDTYYPLSVRGRFTISRDTAKSSLYLQMNSLTDGDTAVYYCVRGRHFDGYKSVFFDSWGQGTLVTVSS VL: not shown	binds	–	0.631	0.00025	396000
WIr2D3 (antibody, V domains shown, Fully human IgG; also called Wlr2D3) VH: QVQLVQSGGGLVQPGRSLRLSCAASGFTFSSYGMHWVRQAPGKGLEWVAVISYDGSNKYYADSVKGRFTISRDNSKNTLYLQMNSLRAEDTAVYYCFDDYVDYWGQGTLVTVSS VL: DIVMTQTPSSLSASVGDRVTITCRASQGISNYLAWYQQKPGKAPKLLIYAASSLQSGVPSRFSGSGSGTDFTLTISSLRPEDFATYYCLQDYSFPLTFGGGTKVEIK	binds	binds	–	–	–
WIr2C11 (antibody, V domains shown, Tested as IgG (captured by anti-human Fc); also called Wlr2C11) VH: QVQLVESGGALVQPGGSLRLSCAASGFTFSDHWLSWVRQAPGKGLEWVSSISSSSRYIHYADSVKGRFTISRDNAKNSLYLQMNSLSAEDTAVYYCAREDTSMATNGFDVWGQGTMVTVSS VL: AIQLTQSPSSLSASVGDRVTITCRASQGIRNHLGWYQQKPGKAPKRLIYAASSLQSGVPSRFSGSGSGTEFTLTISGLQPEDFATYYCLQHNSYPFTFGQGTRLEIK	binds	–	81.7	0.0219	267000
WIr2D9 (antibody, V domains shown, Fully human IgG; also called Wlr2D9) VH: QVQLVQSGAEVKKPGASVKVSCKVSGYTLTELSMHWVRQAPGKGLEWMGGFDPEDGETIYAQKFQGRVTMTEDTSTDTAYMELSSLRSEDTAVYYCATEGWFGELSPVYWGQGTLVTVSS VL: AIQLTQSPSSLSASVGDRVTITCRASQDIRNDLGWYQQKPGRAPQRLIYTTSTLQSGVPSRFSGSGSGTEFTLTISSLQPEDFATYYCLQHNTYPWTFGQGTRLEIK	binds	binds	–	–	–
WIr2D6 (antibody, V domains shown, Tested as IgG (captured by anti-human Fc); also called Wlr2D6) VH: EVQLVQSGAEVKRSGASVKVSCKLSGDTLTDLSIHWVRQAPGKGLEWMGGFDFEDGEIVYGDKFKGRVTVTEDPSTDTAYMDLKRLTFEDTAIYYCATIKDIPGRYYFDFWGQGTLVTVSS VL: VIWMTQSPSSVSASVGDTVTITCRASQGIRSWLAWYQQKPGKAPKLLIYGASSLHSGVPSRFSGSGSGTYFTLTISSLQPEDFATYYCQQADSFPPWTFGQGTKVEIK	binds	–	53.9	0.0489	907000
WIr2H3 (antibody, V domains shown, Tested as IgG (captured by anti-human Fc); also called Wlr2H3) VH: EVQLVQSGGGMVQPGGSLRLSCAASGFTFSDYYMDWVRQAPGQGLEWVGRIRHKAQGYTTEYAASVKGRFSISRDDSRSSLSLQMNSLKTEDTAVYYCAMVGGSRDWGQGTLVTVSS VL: QAGLTQPPSVSGAPGQRVTISCTGGSSNIGPGYAVHWYQQHPGRAPKLLIYTNNNRPSGVPDRFSGSRSGTSASLAITGLQAEDDAYYYCQSYDSSLSGSVFGGGTKLTVL	binds	–	95.9	0.00897	93500
WIr2H2 (antibody, V domains shown, Fully human IgG; also called Wlr2H2) VH: EVQLVQSGADVKKPGASVKVSCQASGYTLTSYDIHWMRQAPGQGLEWMGWINPNSGNTGYAEKFQGRVAMTSHTSTSTVYMELSRLTSEDTAVYYCARGAMGGFDPWGQGTLVTVSS VL: DIQMTQSPSSVSASVGDRVTITCRASQDISRWLAWYQQKPGKAPKLLIYAASTLQSGVPSRFSGSGSGTDFTLTISSLQPEDFATYYCQQANTFPITFGQGTRLEIK	binds	binds	–	–	–
WIr2D10 (antibody, V domains shown, Fully human IgG; also called Wlr2D10) VH: QVQLVESGGGVVQPGRSLRLSCGASGFTFSRFAMHWVRQAPGKGLEWVTVTSFDGSEIYYADSVKGRFTISRDNSKNTLYLQMNSLRVDDTAVYFCARDALGSIDYWGQGTLVTVSS VL: not shown	binds	binds	–	–	–
WIr2F6 (antibody, V domains shown, Tested as IgG (captured by anti-human Fc); also called Wlr2F6) VH: QMQLVQSGAEVKRPGASVKVSCKASGYSFTNFDINWVRQATGQGLEWMGWMDPNSGNSGSAPAFQGRVTMTRDTSIGTAYMELSGLTSEDTAVYYCARDDFYDSSGFDAWGQGTLVTVSS VL: QSVLTQPPSASGTPGQTVTVSCSGRSSNVGSNTVDWYQHLPGTAPKLLIYSSNRRPSGVPDRFSGSKSGTSASLAISGLQSEDEADYYCAAWDDSLNVYVFGTGTKLTVL	binds	–	10.1	0.00559	554000
WIr2G8 (antibody, V domains shown, Fully human IgG; also called Wlr2G8) VH: QVQLVQSGAEVQKPGASVKVSCKASGYRFINNDIHWVRQATGQGLEWMGWMDPNNGKTGYAQKFQGRVTMTRDTSISTAYMELSSLRSEDTGVYYCVRGIIAAAGGGWGQGTLVTVSS VL: DVVMTQSPSTLSASVGDRATITCRASQSVDTWLAWYQQKPGKAPHVLIYKASNLNSGVPSRFSGSGSGTEFTLTISSLQPDDFATYYCQQYKTWWTFGQGTKVEIK	binds	binds	–	–	–
WIr2E4 (antibody, V domains shown, Fully human IgG; also called Wlr2E4) VH: QVQLQQSGAEVKKPGASVKVSCKVSGYTLTELSMHWVRQAPGKGLEWMGGFDPEDGETIYAQKFQGRVTMTEDTSTDTAYMELSSLRSEDTAVYYCATDRWWERTTWGAFDIWGQGTMVTVSS VL: QSVLTQPASVSGSPGQSITISCIGTGSAAVSWYQQHPGKAPKLIIYDVNNRPSGVSARFSGSKSDNTASLTISGLQAEDEGDYYCSTYGAGSTWVFGGGTKLTVL	binds	binds	–	–	–
WIr2B9 (antibody, V domains shown, Fully human IgG; also called Wlr2B9) VH: QVQLVQSGAEVKKPGSSVKVSCKASGGTFNNYNINWVRQAPGQGFEWMGRIVPMLGVPKYAQKFQGRVTISADMSTSTAYMELRSLRSDDTAMYYCARGEDLDPWGQGTLVTVS VL: SYELMQPASVSGSPGQSITISCTGTSSDVGGYNYVSWYQQHPGKAPKLMIYDVSKRPSGVSNRFSGSKSGNTASLTISGLQAEDEADYYCSSYTSSSPYVFGTGTKVTVL	binds	binds	–	–	–
WIr2G7 (antibody, V domains shown, Fully human IgG; also called Wlr2G7) VH: QVQLVQSGAEVKKPGASVKVSCKASGYTFTSYDINWVRQATGQGPEWLGWLNPGSGKTGNAQNFQGRVFMTWDTSKDTAYMEMSSLRSDDTAVYYCARNLDYWGQGTLVTVSS VL: DIVMTQTPLSLPVTLGQPASISCRSSQSLVYSDGNTYLSWLQQRPGQPPRVLINQISNRFSGVPDRFSGSGAGTDFTLKISRVEAEDVGVYYCMQATQFPVTFGGGTKVEIK	binds	binds	–	–	–

From patent publication US20170304442A1 (SORRENTO THERAPEUTICS, published 2017)
